# Biological target: human CD3 on activated lymphocytes (human)
# Experiment: cell-based or functional assay
row,Substance,GFP positive cells after transduction of activated lymphocytes (GFP vector)
1,OKT3-CD8a-VSVG,> 50%
2,OKT3-VSVG,7%

# Source: patent US20230167158A1
